These results are taken from the supplement of paper PMC10126150.

± gives the standard deviation of the averaged measurements.

In this data set the test system is ATP. Nature of the data set: switch fluorescence ratio, 500 uM ATP over buffer (Cy3 cluster intensity, sum of 5 cycles each) (fold (ratio)); higher = stronger signal-on switching upon ATP binding; sequences stand for … in TCGTCGGCAGCGTCAGATGTGTATAAGAGACAGTTTTTTTTTTTTTTTTTTTTTTTTT…TC. The note with it: aptamer strand: ATP DNA aptamer (quencher-CACCTGGGGGAGTATTGCGGAGGAAGG + anchor), 100 nM annealed; ATP concentration: 500 uM. The essentials:
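Clusters carrying Cy3-labelled switching strands on a modified Illumina MiSeq flow-cell were annealed to 100 nM quencher-labelled ATP aptamer and imaged in selection buffer. They were imaged again after 15 min with 500 uM ATP at 22 °C, over five buffer/ATP cycles with NaOH stripping and re-annealing in between. For each cluster, the fluorescence ratio is the summed Cy3 intensity of the target cycles divided by that of the buffer cycles, averaged per switch-domain sequence. Clusters outside 100-1000 RFU were left out.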
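Also: ATP exposure 15 min at 22 °C before imaging.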

For the sequence GGGGATGTAC, the switch fluorescence ratio is 1.07 ± 0.077.

For the sequence GGGGATGTAG, the switch fluorescence ratio is 0.979 ± 0.026.

In the case of GGGGATGTTA, the switch fluorescence ratio stood at 1.01 ± 0.026.

On to GGGGATGTTT, for which the switch fluorescence ratio amounted to 0.958 ± 0.039.

For the sequence GGGGATTGAG, the switch fluorescence ratio turned out to be 0.973 ± 0.042.

As for GGGGATTGTT, the switch fluorescence ratio worked out at 1 ± 0.033.

GGGGATTTCA: the switch fluorescence ratio was found to be 0.989 ± 0.024.

With GGGGATTTGT, the switch fluorescence ratio was 0.994 ± 0.034.

Turning to GGGGCAAAGA, the switch fluorescence ratio came to 1.02 ± 0.027.

GGGGCAAGCG: the switch fluorescence ratio is 1.04 ± 0.028.

Turning to GGGGCAGAAA, the switch fluorescence ratio amounted to 1.26 ± 0.45.

Regarding GGGGCAGGCG, the switch fluorescence ratio stood at 1.07 ± 0.35.

Turning to GGGGCATAGT, the switch fluorescence ratio came out at 0.991 ± 0.02.

As to GGGGCATGGC, the switch fluorescence ratio was 1.02 ± 0.028.

GGGGCATTAT: the switch fluorescence ratio turned out to be 1.06 ± 0.074.

GGGGCCAATT: the switch fluorescence ratio was determined as 1.01 ± 0.032.

As to GGGGCCGGGA, the switch fluorescence ratio was determined as 1.12 ± 0.19.

GGGGCCGGTC: the switch fluorescence ratio was 1 ± 0.016.

As to GGGGCGAGTC, the switch fluorescence ratio worked out at 1.01 ± 0.1.

Turning to GGGGCGGACG, the switch fluorescence ratio was 0.995 ± 0.047.

As for GGGGCGGGCA, the switch fluorescence ratio was determined as 1.03 ± 0.043.

Consider GGGGCGGGTG, for which the switch fluorescence ratio was determined as 0.993 ± 0.039.

Regarding GGGGCGGGTT, the switch fluorescence ratio amounted to 1.02 ± 0.04.

For GGGGCGGTGC, the switch fluorescence ratio was 1.03 ± 0.023.

On to GGGGCGGTGT, for which the switch fluorescence ratio was found to be 1.32 ± 0.54.

Regarding GGGGCGTGTA, the switch fluorescence ratio was found to be 0.977 ± 0.029.

On to GGGGCTAGAG, for which the switch fluorescence ratio stood at 1.4 ± 0.77.

GGGGCTAGGG: the switch fluorescence ratio is 1 ± 0.032.

Turning to GGGGCTCTAA, the switch fluorescence ratio came out at 1.01 ± 0.038.

Consider GGGGCTGAGT, for which the switch fluorescence ratio is 0.954 ± 0.039.

With GGGGCTGCGG, the switch fluorescence ratio worked out at 0.973 ± 0.052.

For the sequence GGGGCTGGGG, the switch fluorescence ratio was 1.01 ± 0.034.

Consider GGGGCTGGGT, for which the switch fluorescence ratio amounted to 1.02 ± 0.031.

Regarding GGGGCTGTCT, the switch fluorescence ratio was determined as 1 ± 0.071.

For GGGGCTTGTG, the switch fluorescence ratio came out at 1.01 ± 0.028.

Regarding GGGGCTTTTC, the switch fluorescence ratio is 1.01 ± 0.027.

For the sequence GGGGGAACGT, the switch fluorescence ratio amounted to 1.05 ± 0.037.

As to GGGGGAAGTA, the switch fluorescence ratio came out at 1.041 ± 0.0027.

As to GGGGGAATTA, the switch fluorescence ratio stood at 1.01 ± 0.029.

For the sequence GGGGGACAGG, the switch fluorescence ratio is 1.05 ± 0.072.

With GGGGGACGGT, the switch fluorescence ratio is 1.02 ± 0.017.

Regarding GGGGGAGAAA, the switch fluorescence ratio amounted to 1.02 ± 0.033.

On to GGGGGAGAAC, for which the switch fluorescence ratio worked out at 1.026 ± 0.0019.

Take GGGGGAGAGG: the switch fluorescence ratio was determined as 0.99 ± 0.029.

As to GGGGGAGCAG, the switch fluorescence ratio came out at 0.9812 ± 0.0084.

Regarding GGGGGAGCGT, the switch fluorescence ratio was determined as 1 ± 0.03.

In the case of GGGGGAGGGT, the switch fluorescence ratio came out at 0.997 ± 0.036.

GGGGGAGTAC: the switch fluorescence ratio is 1.025 ± 0.0084.

Turning to GGGGGAGTAG, the switch fluorescence ratio is 0.983 ± 0.016.

As for GGGGGATACT, the switch fluorescence ratio was found to be 1.04 ± 0.037.

Consider GGGGGATATT, for which the switch fluorescence ratio is 1.01 ± 0.037.

With GGGGGATCGC, the switch fluorescence ratio is 1.01 ± 0.025.

On to GGGGGATCGT, for which the switch fluorescence ratio came out at 1.02 ± 0.035.

Turning to GGGGGATGAA, the switch fluorescence ratio was found to be 0.991 ± 0.025.

On to GGGGGATT, for which the switch fluorescence ratio is 0.996 ± 0.02.

GGGGGATTAG: the switch fluorescence ratio stood at 0.992 ± 0.022.

In the case of GGGGGATTAT, the switch fluorescence ratio came to 0.992 ± 0.044.

On to GGGGGATTCT, for which the switch fluorescence ratio is 1.02 ± 0.011.

For GGGGGATTGG, the switch fluorescence ratio was 0.999 ± 0.032.

As for GGGGGCAGGT, the switch fluorescence ratio came out at 1.03 ± 0.039.

Take GGGGGCATCT: the switch fluorescence ratio turned out to be 1 ± 0.019.

Regarding GGGGGCCACG, the switch fluorescence ratio stood at 0.984 ± 0.022.

For the sequence GGGGGCCCGT, the switch fluorescence ratio amounted to 1.46 ± 0.69.

On to GGGGGCCCTC, for which the switch fluorescence ratio came to 0.985 ± 0.01.

Regarding GGGGGCCCTG, the switch fluorescence ratio worked out at 0.98993 ± 0.0009.

As for GGGGGCGATT, the switch fluorescence ratio came to 0.987 ± 0.017.

Regarding GGGGGCGGCG, the switch fluorescence ratio is 1 ± 0.051.

For the sequence GGGGGCGTGG, the switch fluorescence ratio was 1 ± 0.043.

On to GGGGGCGTTG, for which the switch fluorescence ratio was 1.01 ± 0.02.

As for GGGGGCTTGA, the switch fluorescence ratio amounted to 0.954 ± 0.022.

GGGGGGAAAG: the switch fluorescence ratio was 0.98 ± 0.029.

On to GGGGGGAAGA, for which the switch fluorescence ratio came to 0.994 ± 0.025.

GGGGGGAATC: the switch fluorescence ratio came out at 1.01 ± 0.052.

For GGGGGGACAA, the switch fluorescence ratio turned out to be 1 ± 0.013.

As to GGGGGGACCG, the switch fluorescence ratio was 0.987 ± 0.032.

Take GGGGGGACGA: the switch fluorescence ratio is 1.01 ± 0.033.

With GGGGGGAGGC, the switch fluorescence ratio amounted to 0.995 ± 0.028.

GGGGGGCAAG: the switch fluorescence ratio came out at 0.9858 ± 0.009.

Regarding GGGGGGCAAT, the switch fluorescence ratio stood at 1.2 ± 0.099.
